Patent US20240174746A1

B1: TM-79 (antibody, V domains shown)
VH: EVQLQQSGPELVKPGASVKMSCKASGYTFTNYVMHWLKQKPGQGLEWIAHITPHNDGTKYNEKFKGKATLTSDRSSSTAYMELNSLTSEDSAIYYCARSGQFGRGDYFHYWGQGTTVTVSS
VL: DIVLTQSPASLAVSLGQRATISCRASKSVSTSGSIYIHWYQQKPGQPPKLLIYLTSNLESGVPARFSGSGSGTDFTLNIHPVEEEDAATYYCQHSGELPWTFGGGARLEIK
B2: TM-77 (antibody, V domains shown)
VH: QIQLQQSGAELVRPGASVKLSCKASGYTFTDYEMHWVKQTPVHGLEWIGVIDPETGGTAYNQMFKGKATLTADKSSSTAYMDLRSLTSEDSAVYYCVKYGIEGYWGQGTTLTVSS
VL: DVVMTQIPLTLSVTLGQPASISCKSSQSLFHSNGKTYLNWLLQRPGQSPKLLIYMVSKLESGVPDRFSGSGSGTDFTLKISRVEAEDLGVYYCLQVTHFPLTFGAGTKLELK
B3: TM-90 (antibody, V domains shown)
VH: QVHLQQSGPELVKPGASVKLSCKASGYPFTSYDINWVKQRPGQGLEWIGWIYPRDGNAKYNEKFKGKATLTVDTSSSTAYMELHSLTSENSAVYFCARVSDYHGGYGMDYWGQGTSVTVSS
VL: DVLMTQTPLSLPVSLGDQASISCRSSQSFVHGNGNTYLEWYLQKPGQSPKLLIYKVSHRFSGVPDRFSGSGSGTDFTLKITRVEAEDLGVYYCFQNSHVPHTFGGGTKLEIK
B4: TM-72 (antibody, V domains shown)
VH: QVQLQQPGAELVKPGTSVKLSCKASGSTFTNYWMHWVMQRPGQGLEWIGNIDPSDSDTHYNQKFKDRAKLTVDKSSSTAYMQLSGLTSEDSAVYYCARSRGGYYDYGEAMDYWGQGTSVTVSS
VL: DIVMTQAAPSVPVTPGESVSISCRSSKSLLHTNGNTYLFWFIQRPGQSPHLLIYRKSNLASGVPDRFSGSGSGTAFTLRISRVEAEDVGVYYCMQHLEYPFTFGSGTKLEIK
B5: TM-82 (antibody, V domains shown)
VH: QVQLQQSGAELVRPGTSVRVSCKASGYAFTNYLIEWIKQRPGQGLEWIGVINPGSGITDYSEKFKGKARLTADKSSSTAYMQLSSLTSDDSAVYFCTRSPFITTVVADYWGQGTTVTVSS
VL: DVVVTQTPLSLPVSFGDQVSISCRSSQSLANTYGNTYLSWYLHTPGQSPQLLIFGISNRFSGVPDRFSGSGSGTDFTLKISTIKPEDLGVYYCLQGTHPPRTFGGGTKLEMK

What was measured:
mouse TMEM106B (mouse) = mouse TMEM106B (mouse) (UniProt Q80X71); experiment: flow cytometry, HEK293 cells transiently transfected with murine TMEM106B
[1] = target: cynomolgus (cyno) TMEM106B (cynomolgus); experiment: flow cytometry, HEK293 cells transiently transfected with cyno TMEM106B
human TMEM106B (human) = human TMEM106B (human) (UniProt Q9NUM4); experiment: flow cytometry, HEK293 cells transiently transfected with human TMEM106B

| Binder | fold-change in binding over parental HEK293 cells (mouse TMEM106B (mouse)) | other results |
| --- | --- | --- |
| B1 | 1.86 fold | – |
| B2 | 1.86 fold | – |
| B3 | 1.97 fold | – |
| B4 | – | fold-change in binding over parental HEK293 cells [1]: 1.78 fold |
| B5 | – | fold-change in binding over parental HEK293 cells (human TMEM106B (human)): 1.99 fold |
